Where two headings read alike, the source gives them in different places.
Columns and labels:
[1] = Tsuzuki et al. 2005; cited from earlier work
[2] = Thermostability: relative bioluminescence activity after 30 min incubation; assay type: physicochemical; details: CLZ-f
Description: Thermostability of aequorin and redquorin mutant with increased affinity for calcium were compared to wt-aequorin (FIG. 5). The purified photoprotein samples were reconstituted with CLZ-f (as detailed earlier) and let to calibrate at room temperature (20-24° C.) for 20 min before taken the first measurement of total counts using saturating calcium solution (50 mM Tris-HCl, 100 mM CaCl2, pH 7.5). Samples were then incubated at two different temperatures (30 to 40° C.) for 30 min, and let equilibrate at room temperature for 15 minbefore taken the second measurement of total counts in the sample. The relative bioluminescence activity at each temperature was calculated by the ratio 2nd counts (at target T° C.)/1st counts (at initial T° C.) multiplied by 100.
Table 6 highlights the analysis of thermostability data obtained at two temperatures for aequorin and redquorin mutants, as well as CitA and GA. The values represent the degree of change in luminescence activity compared to wt-aeq, at each temperature. All values are relative to wt-aequorin (at each temperature) and were calculated by dividing the obtained data for each mutant/variant by the data for wt-aeq (as reference). The data were taken from FIG. 5.

[3] = background art; cited from earlier work
[4] = Ca2+ sensitivity curves of reconstituted photoproteins (L/Lmax vs free Ca2+); assay type: biochemical; details: for EC50: read-out: Calcium sensitivity, EC50
Description: For in vitro reconstitution, the purified and concentrated samples of apoaequorin and redquorin mutant proteins were buffer-exchanged to 50 mM Tris-HCl (pH 7.5), 150 mM NaCl, 10 mM EGTA, 5 mM ß-mercaptoethanol, supplemented with 5 μM CLZ-f or CLZ-native and incubated overnight at 4° C., in the dark. The next day, samples were passed through molecular weight cut-offs (AmiconUitra MWCO, 10K and 50K, from Millipore), then resuspended in Zero-Ca^2+ buffer (30 mM MOPS, 100 mM KCl and 10 mM EGTA, pH 7.2) for calcium affinity, emission decay kinetics and spectral analysis assays. As for in cellulo reconstitution, HEK cells transiently expressing the proteins of apoaequorin and aporedquorin mutants were washed twice with Hank's Balanced Salt Solution (HBSS) and incubated in the dark, with 4 μM of the desired CLZ diluted in OptiMEM I medium (Gibco), for 2-3h at 37° C. and 5% CO2. Cells were washed once and maintained in HBSS at 37° C. for 20 min before the experiment.
Functional Analysis of Aequorin Mutants and Fusions Ca^2+ Sensitivity Curves.
Purified and reconstituted samples with CLZ-f or CLZ-native already buffered-exchanged to zero-calcium buffer ensured to minimize calcium contamination that could interfere with the measurements. Fifteen microliter aliquot of photoprotein samples (concentration range, 50 to 90 ng/μl) was placed in a home-made luminometer and mixed with 300 μl solution containing the desired concentration of free-Ca^2+. The solutions of EGTA-buffered with varying free-Ca^2+ prepared according to the manufacturer instruction for the kit (Molecular Probes, Invitrogen). Integration of the luminescence emission (per second) was measured for 20 seconds (background) before injecting a solution with known [free-Ca^2+] and lasted until stable or decaying signal (at final-phase) was obtained. At this point, 400 μl of a saturating calcium solution (30 mM MOPS, 100 mM CaCl2, pH 7.2) was rapidly injected (less than 30 ms) and light integration continued until all aequorin had been consumed and light intensity had gone back to background signal. Luminescence intensity (L) at different [Ca^2+] was taken as the response peak value in case of decaying signal or as the stable value in case of stable emission. Lmax, was measured by integrating all remaining luminescence signal from that moment (L value) to the end of the experiment. The EC50 values were extracted from a sigmoidal dose-response fit (variable slope) using GraphPad Prism software.

endogenous P2Y2 receptor = test: Assay of activation of endogenous P2Y2 receptor by ATP in CHO cells stably expressing photoproteins; assay type: cell-based; details: CHO cells stably expressing the sensor; for EC50: ATP dose-response, read-out: EC50 (half-maximal effective concentration of ATP for P2Y2 activation)
Description: Stably prepared CHO cells were loaded with 5 μM coelenterazine in 130 mM NaCl, 5 mM KCl, 1 mM MgCl2, 2 mM CaCl2, 5 mM NaHCO3, 20 mM N-(2-hydroxyethyl) piperazine-N′-ethanesulfonic acid (HEPES), pH 7.4 for 4 h at ambient temperature.
To produce stable CHO cell lines, the cells transfected with GA and Redquorin variant plasmids were seeded on six-well plates and grown in the same medium with addition of Geneticin sulfate (G418) (Gibco, UK) at 1 mg/ml under the same conditions with replacement of the medium by fresh medium every 2 days. After 7-10 days of selection, CHO cells were transferred into a medium without antibiotic. To select clones with the highest bioluminescence activity, one run of limiting dilution was performed. CHO cells after G418 selection were seeded on 96-well plates (approximately 0.5 cells per well) and grown in DMEM/F12 medium supplemented with 10% fetal calf serum at 37° C., 5% CO2 for up to 80-90% confluence. Before the bioluminescence measurements, the plates with monoclones of CHO cells expressing the corresponding photoprotein were duplicated and grown for up to 90-100% confluence. Then, the medium was removed and cells were loaded with coelenterazine, and bioluminescence in each well was measured according to the procedure described earlier. As a result, the CHO cell clones with the highest bioluminescence activity were selected.
Assay of Activation of Endogenous P2Y2 Receptor in CHO Cells
The CHO cell lines stably expressing each photoprotein were used in assay of activation of endogenous P2Y2 receptor by ATP. The day before the measurements, the corresponding cells were seeded on 96-well plates with DMEM/F12 medium supplemented with 10% fetal calf serum and were grown at 37° C. with 5% CO2 for up to 90-100% confluence. Then, the medium was replaced by 100 μl of coelenterazine solution per well (5 μM coelenterazine in 130 mM NaCl, 5 mM KCl, 1 mM MgCl2, 2 mM CaCl2, 5 mM NaHCO3, 20 mM HEPES, pH7.4) and the cells were incubated at 23° C. for 4 h. Emission from photoproteins in the cells was measured using a Mithras LB 940 plate luminometer. The ATP was injected at a given concentration to trigger an intracellular Ca^2+ response in the cells and the measurement started immediately. The bioluminescence was integrated over a time interval of 0.05 s for 30 s.

[5] = CLZ-f, L/Lmax compared to Aeq-wt
[6] = CLZ-f, redquorin series, CitA, GA
[7] = CLZ-native, redquorin series, CitA, GA

Molecule | emission half-life (t½) [1] | Thermostability, luminescence activity relative to wt-aequorin ([2]; 30° C. for 30 min) | Thermostability, luminescence activity relative to wt-aequorin ([2]; 40° C. for 30 min) | affinity of aequorin for calcium [3] | Relative intensity at pCa 6.5 [4, 5] | Relative intensity at pCa 7.2 [4, 5] | EC50 ([4]; aequorin proteins reconstituted with CLZ-f, sigmoidal curve fit, mean ± SD, n at least 3) | [ATP] DL (detection limit) (endogenous P2Y2 receptor) | EC50 (endogenous P2Y2 receptor) | EC50 [4, 6] | Relative intensity at pCa 6.5 ([4]; CLZ-f, relative to Redq) | Relative intensity at pCa 7.2 ([4]; CLZ-f, relative to Redq) | EC50 [4, 7] | Relative intensity at pCa 6.5 ([4]; CLZ-native, relative to Redq) | Relative intensity at pCa 7.2 ([4]; CLZ-native, relative to Redq)
E35G: aequorin mutation from random mutagenesis reported by Tsuzuki et al. 2005 (protein) SKLTSDFDNPRWIGRHKHMFNFLDVNHNGKISLDGMVYKASDIVINNLGATPEQAKRHKDAVEAFFGGAGMKYGVETDWPAYIEGWKKLATDELEKYAKNEPTLIRIWGDALFDIVDKDQNGAITLDEWKAYTKAAGIIQSSEDCEETFRVCDIDESGQLDVDEMTRQHLGFWYTMDPACEKLYGGAVP | 40 s | – | – | – | – | – | – | – | – | – | – | – | – | – | –
V44A: aequorin mutant, valine 44 replaced by alanine (protein) SKLTSDFDNPRWIGRHKHMFNFLDVNHNGKISLDEMVYKASDIAINNLGATPEQAKRHKDAVEAFFGGAGMKYGVETDWPAYIEGWKKLATDELEKYAKNEPTLIRIWGDALFDIVDKDQNGAITLDEWKAYTKAAGIIQSSEDCEETFRVCDIDESGQLDVDEMTRQHLGFWYTMDPACEKLYGGAVP | 34 s | – | – | – | – | – | – | – | – | – | – | – | – | – | –
Aeq-wt: wild-type aequorin: apoaequorin of Aequorea victoria (SEQ ID NO:1) reconstituted with coelenterazine (protein, listed as Aequorea aequorea, reconstituted with coelenterazine; SITE (1)..(189) wild-type aequorin) SKLTSDFDNPRWIGRHKHMFNFLDVNHNGKISLDEMVYKASDIVINNLGATPEQAKRHKDAVEAFFGGAGMKYGVETDWPAYIEGWKKLATDELEKYAKNEPTLIRIWGDALFDIVDKDQNGAITLDEWKAYTKAAGIIQSSEDCEETFRVCDIDESGQLDVDEMTRQHLGFWYTMDPACEKLYGGAVP | 0.8 s | 1.00 | 1.00 | around 1 μM | 1 | 1 | 0.659 ± 0.023 µM | – | – | – | – | – | – | – | –
Redq/QT + AD: aporedquorin mutant Q159T + A123D (SEQ ID NO:25) (protein, mutant aequorin) MVSKGEEVIKEFMRFKVRMEGSMNGHEFEIEGEGEGRPYEGTQTAKLKVTKGGPLPFAWDILSPQFMYGSKAYVKHPADIPDYKKLSFPEGFKWERVMNFEDGGLVTVTQDSSLQDGTLIYKVKMRGTNFPPDGPVMQKKTMGWEASTERLYPRDGVLKGEIHQALKLKDGGHYLVEFKTIYMAKKPVQLPGYYYVDTKLDITSHNEDYTIVEQYERSEGRHHLFLGHGTGSTGSGSSGTASSEDNNMAVIKEFMRFKVRMEGSMNGHEFEIEGEGEGRPYEGTQTAKLKVTKGGPLPFAWDILSPQFMYGSKAYVKHPADIPDYKKLSFPEGFKWERVMNFEDGGLVTVTQDSSLQDGTLIYKVKMRGTNFPPDGPVMQKKTMGWEASTERLYPRDGVLKGEIHQALKLKDGGHYLVEFKTIYMAKKPVQLPGYYYVDTKLDITSHNEDYTIVEQYERSEGRHHLFLSGFDNPRWIGRHKHMFNFLDVNHNGKISLDEMVYKASDIVINNLGATPEQAKRHKDAVEAFFGGAGMKYGVETDWPAYIEGWKKLATDELEKYAKNEPTLIRIWGDALFDIVDKDQNGDITLDEWKAYTKAAGIIQSSEDCEETFRVCDIDESGTLDVDEMTRQHLGFWYTMDPACEKLYGGAVP | – | 0.94 | 1.00 | – | – | – | – | 1230 ± 51 nM | 3.1 ± 0.4 µM | 0.336 ± 0.011 µM | 14.4 | 7.4 | 0.577 ± 0.033 µM | 14.4 | 10.0
Redq/QD + AT: aporedquorin mutant Q159D + A179T (SEQ ID NO:23) (protein, mutant aequorin) MVSKGEEVIKEFMRFKVRMEGSMNGHEFEIEGEGEGRPYEGTQTAKLKVTKGGPLPFAWDILSPQFMYGSKAYVKHPADIPDYKKLSFPEGFKWERVMNFEDGGLVTVTQDSSLQDGTLIYKVKMRGTNFPPDGPVMQKKTMGWEASTERLYPRDGVLKGEIHQALKLKDGGHYLVEFKTIYMAKKPVQLPGYYYVDTKLDITSHNEDYTIVEQYERSEGRHHLFLGHGTGSTGSGSSGTASSEDNNMAVIKEFMRFKVRMEGSMNGHEFEIEGEGEGRPYEGTQTAKLKVTKGGPLPFAWDILSPQFMYGSKAYVKHPADIPDYKKLSFPEGFKWERVMNFEDGGLVTVTQDSSLQDGTLIYKVKMRGTNFPPDGPVMQKKTMGWEASTERLYPRDGVLKGEIHQALKLKDGGHYLVEFKTIYMAKKPVQLPGYYYVDTKLDITSHNEDYTIVEQYERSEGRHHLFLSGFDNPRWIGRHKHMFNFLDVNHNGKISLDEMVYKASDIVINNLGATPEQAKRHKDAVEAFFGGAGMKYGVETDWPAYIEGWKKLATDELEKYAKNEPTLIRIWGDALFDIVDKDQNGAITLDEWKAYTKAAGIIQSSEDCEETFRVCDIDESGDLDVDEMTRQHLGFWYTMDPTCEKLYGGAVP | – | 1.00 | 1.03 | – | – | – | – | 562 ± 20 nM | 2 µM | 0.252 ± 0.04 µM | 58.5 | 48.3 | 0.515 ± 0.02 µM | 32.1 | 24.5
